{"source": "patent US20240207401A1", "about": "(IMPERIAL COLLEGE INNOVATIONS, published 2024)", "binders": {"B1": {"name": "IC001 (antibody, V domains shown)", "VH": "QVQLVQSGAEVKKPGASVKVSCKASGYTFTSYAMHWVRQAPGQRLEWMGWINAGNGNTKYSQKFQGRVTITRDTSASTAYMELSSLRSEDTAVYYCARDRHMVVPAAVFDYWGQGTLVTVSS", "VL": "AIQLTQSPSTLSASVGDRVTITCRASQSISSWLAWYQQKPGKAPKLLIYKASSLESGVPSRFSGSGSGTEFTLTISSLQPDDFATYYCQQYGTFGQGTKWISN", "notes": "also called CoV-bnMAB; mAb IC001"}, "B2": {"name": "IC008 (antibody, V domains shown)", "VH": "LVQLQESGPRLVTPSETLSLTCTVSGGSISSSRHYWGWIRQPPGMGLEWIGSIDYSGGTYCNPSLKSRVTISEDTSKNQFSLKVNSVTAADTAVYYCARQVGHSGRGHNWFDPWGQGTLVTVSS", "VL": "DIQMTQSPSSLSASVGDRVTITCRASQSIYNYLNWYQQKPGKAPKFLIYAASTLQTGVPSRFSGSGSGTDFTLTISSLQPEDFATYYCQQSYSSSVTFGQGTRLEIK", "notes": "also called CoV-bnMAB; mAb IC008"}}, "key": {"[1]": {"biological_target": "T1, SARS-CoV-2 spike trimer (COVID19 S ectodomain, residues 1-1208) (SARS-CoV-2, UniProt P0DTC2 14-1208)"}, "[2]": {"biological_target": "T2, MERS-CoV spike trimer (S ectodomain protein) (MERS-CoV, UniProt K9N5Q8 18-1296)"}, "[3]": {"biological_target": "T3, SARS-CoV spike trimer (S ectodomain protein) (SARS-CoV, UniProt P59594 14-1195)"}, "[4]": {"biological_target": "T1, SARS-CoV-2 spike trimer (COVID19 S …)", "remark": "listed apart in the source"}, "[5]": {"biological_target": "T1, SARS-CoV-2 spike trimer (COVID19 S …)", "remark": "listed apart in the source"}, "[6]": {"biological_target": "T3, SARS-CoV spike trimer (S ectodomain …)", "remark": "listed apart in the source"}, "[7]": {"biological_target": "T4, SARS-CoV spike protein, full length on virus (SARS-CoV, UniProt P59594 14-1255)", "assay": "cell-based or functional assay"}, "[8]": {"biological_target": "T5, MERS-CoV spike protein, full length on virus or transfected cells (MERS-CoV, UniProt K9N5Q8 18-1353)", "assay": "cell-based or functional assay"}, "[9]": {"biological_target": "T2, MERS-CoV spike trimer (S ectodomain …)", "assay": "MERS-CoV spike"}, "[10]": {"biological_target": "T4, SARS-CoV spike protein, full length on …", "assay": "cell-based or functional assay", "remark": "listed apart in the source"}, "[11]": {"biological_target": "SARS-CoV-2 S protein, membrane form (SARS-CoV-2, UniProt P0DTC2 14-1273)", "assay": "cell-based or functional assay"}, "[12]": {"biological_target": "T5, MERS-CoV spike protein, full length on …", "assay": "cell-based or functional assay", "remark": "listed apart in the source"}, "[13]": {"biological_target": "T3, SARS-CoV spike trimer (S ectodomain …)", "assay": "SARS-CoV spike"}, "[14]": {"biological_target": "T1, SARS-CoV-2 spike trimer (COVID19 S …)", "assay": "ELISA on spike trimer, IgG titrated"}}, "note": "Where two headings read alike, the source gives them in different places.", "data": [{"binder": "B1", "values": [{"measurement": "Kd", "setting": "[1]", "result": 700, "unit": "nM"}, {"measurement": "Kd", "setting": "[2]", "result": 1200, "unit": "nM"}, {"measurement": "Kd", "setting": "[3]", "result": 700, "unit": "nM"}, {"measurement": "EC50", "setting": "[4]", "result": 586, "unit": "nM"}, {"measurement": "fold weaker binding affinity than ACE2", "setting": "[4]", "result": "~7", "unit": "fold"}, {"measurement": "EC50", "setting": "[5]", "result": 520, "unit": "nM"}, {"measurement": "EC50", "setting": "[6]", "result": 586, "unit": "nM"}, {"measurement": "neutralization of SARS-CoV pseudovirus (IC50)", "setting": "[7]", "result": 1.8, "unit": "µg/mL"}, {"measurement": "neutralization of MERS-CoV pseudovirus (IC50)", "setting": "[8]", "result": 2.9, "unit": "µg/mL"}, {"measurement": "EC50", "setting": "[9]", "result": 857, "unit": "nM"}, {"measurement": "IC50, neutralisation", "setting": "[10]", "result": 2.8, "unit": "µg/mL"}, {"measurement": "IC50, neutralisation", "setting": "[11]", "result": 2.2, "unit": "µg/mL"}, {"measurement": "IC50, neutralisation", "setting": "[12]", "result": 3, "unit": "µg/mL"}, {"measurement": "EC50", "setting": "[13]", "result": 520, "unit": "nM"}]}, {"binder": "B2", "values": [{"measurement": "EC50 (read off the curve)", "setting": "[14]", "result": "~2", "unit": "nM"}, {"measurement": "IC50, neutralisation", "setting": "[10]", "result": 3, "unit": "µg/mL"}, {"measurement": "IC50, neutralisation", "setting": "[11]", "result": 4.5, "unit": "µg/mL"}, {"measurement": "IC50, neutralisation", "setting": "[12]", "result": 2.9, "unit": "µg/mL"}]}]}
